Reference: patent publication US20150005237A1 (UNIVERSIT T INNSBRUCK, published 2015)

Experiments:
[1] = biological target: T1, PKA catalytic subunit (mouse, type α, PKAc) fused to Venus YFP PCA fragment F[2] (mouse, UniProt P05132 1-351); test: Venus YFP protein-fragment complementation assay in COS7 cells
[2] = biological target: T2, PKA regulatory subunit RIIβ (rat, type IIβ) fused to Venus YFP PCA fragment F[2] (rat, UniProt P12369 1-416); test: as above
T2 construct: Expressed in COS7 or HEK293 cells from pcDNA3.1; also called RIIβ-F[2]; RegIIβ; not shown: Venus variant of yellow fluorescent protein (YFP), C-terminal fragment F[2], amino acids 159-239
T2 sequence (P12369 other isoform, or with tags, fused parts or gaps): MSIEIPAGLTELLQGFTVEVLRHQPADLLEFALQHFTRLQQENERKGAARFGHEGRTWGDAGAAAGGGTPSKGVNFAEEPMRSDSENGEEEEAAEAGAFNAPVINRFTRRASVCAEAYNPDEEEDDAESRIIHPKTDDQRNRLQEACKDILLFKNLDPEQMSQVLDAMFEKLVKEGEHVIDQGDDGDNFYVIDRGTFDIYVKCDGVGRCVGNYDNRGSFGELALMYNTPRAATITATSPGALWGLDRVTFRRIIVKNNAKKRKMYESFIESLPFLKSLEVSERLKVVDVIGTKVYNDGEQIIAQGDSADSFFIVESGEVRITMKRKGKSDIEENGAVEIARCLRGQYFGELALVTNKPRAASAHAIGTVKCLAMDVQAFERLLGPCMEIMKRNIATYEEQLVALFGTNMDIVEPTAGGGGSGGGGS

[3] = biological target: T1, PKA catalytic subunit (mouse, type α, …); test: Venus YFP protein-fragment complementation assay in cells

binding result [1] | binding result [2] | binding result [3] | Binder
no binding | binds | – | Gαi3 fused to Venus YFP PCA fragment F[1] (other, UniProt Q9DC51 1-354, looked up, Prey fused to F[1]; also called Gαi isoform 3 prey; not shown: Venus variant of yellow fluorescent protein (YFP), N-terminal fragment F[1], amino acids 1-158) MGCTLSAEDKAAVERSKMIDRNLREDGEKAAKEVKLLLLGAGESGKSTIVKQMKIIHEDGYSEDECKQYKVVVYSNTIQSIIAIIRAMGRLKIDFGESARADDARQLFVLAGSAEEGVMTSELAGVIKRLWRDGGVQACFSRSREYQLNDSASYYLNDLDRISQTNYIPTQQDVLRTRVKTTGIVETHFTFKELYFKMFDVGGQRSERKKWIHCFEGVTAIIFCVALSDYDLVLAEDEEMNRMHESMKLFDSICNNKWFTDTSIILFLNKKDLFEEKIKRSPLTICYPEYTGSNTYEEAAAYIQCQFEDLNRRKDTKEVYTHFTCATDTKNVQFVFDAVTDVIIKNNLKECGLY
– | – | binds | Phosphoinositide-dependent kinase 1 (PDK1) fused to Venus YFP PCA fragment F[1] (enzyme, UniProt Q9Z2A0 1-559, looked up, Prey fused to F[1]; not shown: Venus variant of yellow fluorescent protein (YFP), N-terminal fragment F[1], amino acids 1-158) MARTTSQLYDAVPIQSSVVLCSCPSPSMVRSQTEPGSSPGIPSGVSRQGSTMDGTTAEARPSTNPLQQHPAQLPPQPRKKRPEDFKFGKILGEGSFSTVVLARELATSREYAIKILEKRHIIKENKVPYVTRERDVMSRLDHPFFVKLYFTFQDDEKLYFGLSYAKNGELLKYIRKIGSFDETCTRFYTAEIVSALEYLHGKGIIHRDLKPENILLNEDMHIQITDFGTAKVLSPESKQARANSFVGTAQYVSPELLTEKSACKSSDLWALGCIIYQLVAGLPPFRAGNEYLIFQKIIKLEYHFPEKFFPKARDLVEKLLVLDATKRLGCEEMEGYGPLKAHPFFETITWENLHQQTPPKLTAYLPAMSEDDEDCYGNYDNLLSQFGFMQVSSSSSSHSLSTVETSLPQRSGSNIEQYIHDLDTNSFELDLQFSEDEKRLLLEKQAGGNPWHQFVENNLILKMGPVDKRKGLFARRRQLLLTEGPHLYYVDPVNKVLKGEIPWSQELRPEAKNFKTFFVHTPNRTYYLMDPSGNAHKWCRKIQEVWRQQYQSNPDAAVQ
no binding | binds | – | Gαi2 fused to Venus YFP PCA fragment F[1] (other, UniProt P08752 1-355, looked up, Prey fused to F[1]; also called Gαi isoform 2 prey; not shown: Venus variant of yellow fluorescent protein (YFP), N-terminal fragment F[1], amino acids 1-158) MGCTVSAEDKAAAERSKMIDKNLREDGEKAAREVKLLLLGAGESGKSTIVKQMKIIHEDGYSEEECRQYRAVVYSNTIQSIMAIVKAMGNLQIDFADPQRADDARQLFALSCAAEEQGMLPEDLSGVIRRLWADHGVQACFGRSREYQLNDSAAYYLNDLERIAQSDYIPTQQDVLRTRVKTTGIVETHFTFKDLHFKMFDVGGQRSERKKWIHCFEGVTAIIFCVALSAYDLVLAEDEEMNRMHESMKLFDSICNNKWFTDTSIILFLNKKDLFEEKITQSSLTICFPEYTGANKYDEAASYIQSKFEDLNKRKDTKEIYTHFTCATDTKNVQFVFDAVTDVIIKNNLKDCGLF
